B1: Catenin beta-1 (Homo sapiens), P35222 (parent)
chain: MATQADLMELDMAMEPDRKAAVSHWQQQSYLDSGIHSGATTTAPSLSGKGNPEEEDVDTSQVLYEWEQGFSQSFTQEQVADIDGQYAMTRAQRVRAAMFPETLDEGMQIPSTQFDAAHPTNVQRLAEPSQMLKHAVVNLINYQDDAELATRAIPELTKLLNDEDQVVVNKAAVMVHQLSKKEASRHAIMRSPQMVSAIVRTMQNTNDVETARCTAGTLHNLSHHREGLLAIFKSGGIPALVKMLGSPVDSVLFYAITTLHNLLLHQEGAKMAVRLAGGLQKMVALLNKTNVKFLAITTDCLQILAYGNQESKLIILASGGPQALVNIMRTYTYEKLLWTTSRVLKVLSVCSSNKPAIVEAGGMQALGLHLTDPSQRLVQNCLWTLRNLSDAATKQEGMEGLLGTLVQLLGSDDINVVTCAAGILSNLTCNNYKNKMMVCQVGGIEALVRTVLRAGDREDITEPAICALRHLTSRHQEAEMAQNAVRLHYGLPVVVKLLHPPSHWPLIKATVGLIRNLALCPANHAPLREQGAIPRLVQLLVRAHQDTQRRTSMGGTQQQFVEGVRMEEIVEGCTGALHILARDVHNRIVIRGLNTIPLFVQLLYSPIENIQRVAAGVLCELAQDKEAAEAIEAEGATAPLTELLHSRNEGVATYAAAVLFRMSEDKPQDYKKRLSVELTSSLFRTEPMAWNETADLGLDIGAQGEPLGYRQDDPSYRSFHSGGYGQDALGMDPMMEHEMGGHHPGADYPVDGLPDLGHAQDLMDGLPPGDSNQLAWFDTDL

Variants of: B1
Conditions: with axin1_human AXIN1, O15169
axin1_human AXIN1, O15169, sequence (O15169 whole entry): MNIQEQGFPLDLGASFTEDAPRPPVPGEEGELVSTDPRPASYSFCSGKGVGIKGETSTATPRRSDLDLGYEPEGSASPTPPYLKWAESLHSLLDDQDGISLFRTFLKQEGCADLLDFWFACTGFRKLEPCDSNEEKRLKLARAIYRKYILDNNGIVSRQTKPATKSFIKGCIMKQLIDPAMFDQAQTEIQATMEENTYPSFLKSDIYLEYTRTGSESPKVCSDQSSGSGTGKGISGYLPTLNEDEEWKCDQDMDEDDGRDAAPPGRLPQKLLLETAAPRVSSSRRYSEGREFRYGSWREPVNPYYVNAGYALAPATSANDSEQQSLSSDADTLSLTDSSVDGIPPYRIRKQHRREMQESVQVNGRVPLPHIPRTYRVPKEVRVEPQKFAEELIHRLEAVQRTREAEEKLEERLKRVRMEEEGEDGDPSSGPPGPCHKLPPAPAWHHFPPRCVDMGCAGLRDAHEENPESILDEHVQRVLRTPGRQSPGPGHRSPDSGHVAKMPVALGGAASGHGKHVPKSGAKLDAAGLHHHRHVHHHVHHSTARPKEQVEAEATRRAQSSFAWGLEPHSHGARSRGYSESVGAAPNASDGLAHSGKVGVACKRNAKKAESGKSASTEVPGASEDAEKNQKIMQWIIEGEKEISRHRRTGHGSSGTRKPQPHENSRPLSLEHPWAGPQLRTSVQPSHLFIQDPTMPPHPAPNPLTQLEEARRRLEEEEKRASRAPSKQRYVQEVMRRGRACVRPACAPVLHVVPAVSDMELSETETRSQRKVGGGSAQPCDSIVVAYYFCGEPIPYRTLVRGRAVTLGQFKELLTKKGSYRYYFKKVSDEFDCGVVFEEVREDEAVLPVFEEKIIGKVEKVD

Row | Variant | effect of a mutation on the interaction
1 | Y142F | disrupting interaction
2 | Y654F | decreasing interaction

Source: IntAct's records for PubMed 17318191
